Among the data in US20180215829A1 (published 2018) are koff values, retold here.

Positions count from the first letter of the chain named.

B1: VH clone 2.1 (VHH)
VHH: QVQLVQSGAEVKKPGASVKVSCKASGYPFTSYDINWVRQATGQSLEWMGWMNPNSGDTVYAQKFQGRVTMTRNTSISTAYMELSSLRSEDTAVYFCARGRRDDWKNNYWGQGTLVTVSS
B2: VH clone 1.2 (VHH)
VHH: EVQLVESGGGLVQPGRSLRLSCAASGFTFDDYAMHWVRQAPGKGLEWVSGISWNSGRMDYADSVKGRFTISRDNAKNSLYLQMNSLRAEDTALYYCAKEKGLGYCRGGSCSYFDYRGQGTLVTVSS
B3: VH clone 1.1 (VHH)
VHH: B2 VHH with E1Q, N77K, L93M, Y104F

For the experiment, the target named is recombinant human IL-17RA Fc fusion protein (R&D Systems 177-IR-100) (UniProt Q96F46 33-320). Nature of the experiment: BIAcore.
recombinant human IL-17RA Fc fusion protein (R&D Systems 177-IR-100), sequence (Q96F46 33-320): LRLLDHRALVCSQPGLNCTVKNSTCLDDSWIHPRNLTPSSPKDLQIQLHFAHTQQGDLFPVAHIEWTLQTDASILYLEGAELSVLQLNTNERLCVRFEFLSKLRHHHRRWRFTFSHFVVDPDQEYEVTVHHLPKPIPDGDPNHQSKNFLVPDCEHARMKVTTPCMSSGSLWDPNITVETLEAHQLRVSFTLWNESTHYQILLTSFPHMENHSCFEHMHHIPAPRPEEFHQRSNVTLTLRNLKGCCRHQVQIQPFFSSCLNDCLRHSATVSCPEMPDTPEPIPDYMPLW
With B1, the off-rate constant (koff) – broadly, a measure of how fast the partners let go of each other – came out at 0.00384 s⁻¹.

For B2, the koff was determined as 5.79e-05 s⁻¹.

On to B3, for which the koff was 5.83e-05 s⁻¹.
